Results on 2 molecules are retold here after publication PMC11549432 (Nature Communications, 2024).

Where two headings read alike, the source gives them in different places.

In data set [1] the target is ObgE (Obg of E. coli), wild type, N-terminally His6-tagged, purified (E. coli) (UniProt P42641). The experiment in a line: MST.
Data set [2] has the same target. The experiment in a line: MST. The source holds these as a separate data set.
The target is the same in data set [3]. The data set can be described thus: MST. The source holds these as a separate data set.
The data set “SEC-MALS” deals with the molecule itself. The experiment in a line: SEC-MALS. Background: Size exclusion chromatography separates by hydrodynamic size, large species first.

The Kd is the constant that tells how readily two partners part at equilibrium. Low readings indicate tighter binding, high ones weaker binding. For orientation: stoichiometry N means a count of units in the complex or per binding partner.

ObgE (Obg of E. coli), wild type, N-terminally His6-tagged, purified (E. coli), sequence (P42641 whole entry): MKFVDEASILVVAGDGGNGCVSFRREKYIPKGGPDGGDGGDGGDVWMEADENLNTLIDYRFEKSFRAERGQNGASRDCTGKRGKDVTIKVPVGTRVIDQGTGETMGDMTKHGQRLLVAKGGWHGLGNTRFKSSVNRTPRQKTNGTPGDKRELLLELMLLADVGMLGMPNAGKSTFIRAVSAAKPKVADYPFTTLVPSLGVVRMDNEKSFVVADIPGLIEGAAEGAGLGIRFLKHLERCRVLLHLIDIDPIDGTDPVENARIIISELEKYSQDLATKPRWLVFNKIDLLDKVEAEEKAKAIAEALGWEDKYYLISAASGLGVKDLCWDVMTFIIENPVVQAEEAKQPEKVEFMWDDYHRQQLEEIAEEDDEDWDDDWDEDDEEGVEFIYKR

In the case of “LpxA wild type (UDP-N-acetylglucosamine acyltransferase), purified (from UniProt P0A722 1-262) (enzyme)”, the figures for the Kd in data set [1], in data set [2] and in data set [3] were 47 µM, 99 µM and 78 µM, respectively.

B1: LpxA wild type (UDP-N-acetylglucosamine acyltransferase), purified (enzyme, E. coli, UniProt P0A722 1-262, looked up)
chain: MIDKSAFVHPTAIVEEGASIGANAHIGPFCIVGPHVEIGEGTVLKSHVVVNGHTKIGRDNEIYQFASIGEVNQDLKYAGEPTRVEIGDRNRIRESVTIHRGTVQGGGLTKVGSDNLLMINAHIAHDCTVGNRCILANNATLAGHVSVDDFAIIGGMTAVHQFCIIGAHVMVGGCSGVAQDVPPYVIAQGNHATPFGVNIEGLKRRGFSREAITAIRNAYKLIYRSGKTLDEVKPEIAELAETYPEVKAFTDFFARSTRGLIR
As to B1, the “stoichiometry N” value in the data set “SEC-MALS” came out at 3.
